According to patent US20180142032A1 (Sanofi, published 2018):
Where a chain is given by its changes, count along the chain named. Read-outs that look alike come from different tables or passages of the source.

B1: chMAb1 (antibody, human IgG1, kappa)
heavy: not shown
light: DIQMTQSPPSLSASLGGKVTITCKASQDIDRYMAWYQDKPGKGPRLLIHDTSTLQPGIPSRFSGSGSGRDYSFSISNLEPEDIATYYCLQYDNLWTFGGGTKLEIKRTVAAPSVFIFPPSDEQLKSGTASVVCLLNNFYPREAKVQWKVDNALQSGNSQESVTEQDSKDSTYSLSSTLTLSKADYEKHKVYACEVTHQGLSSPVTKSFNRGEC
notes: chimeric, human IgG1, Ckappa; also called MAb1 (chimeric)
B2: DM4-SPDB-huMAb1_1 (antibody, human IgG1, kappa)
heavy: not shown
light: DIQMTQSPSSLSASVGDRVTITCKASQDIDRYMAWYQDKPGKAPRLLIHDTSTLQSGVPSRFSGSGSGRDYTLTISNLEPEDFATYYCLQYDNLWTFGGGTKVEIKRTVAAPSVFIFPPSDEQLKSGTASVVCLLNNFYPREAKVQWKVDNALQSGNSQESVTEQDSKDSTYSLSSTLTLSKADYEKHKVYACEVTHQGLSSPVTKSFNRGEC
modifications: DM4 linked through SPDB, average DAR 3.4 per antibody; sites not stated
notes: antibody drug conjugate of huMAb1_1
B3: chMAb3 (antibody, human IgG1, kappa, V domains shown)
VH: QIQLVQSGPELKKPGETVKISCKASGYIFTNYGMNWVKQAPGKGLKWMGWINTYTGESRYADDFKGRFALSLETSASTAYLQINNLENEDMATYFCAREDYYGNSPWFFDVWGAGTTVTVSS
VL: DIQMTQTTSSLSASLGDRVTISCNASQGINKYLNWYQQKPDGTVKLLIYYTSTLHSGVPSRFSGSGSGTDYSLTINNLEPEDIATYYCQQYTKLPFTFGSGTKLEIKR
notes: chimeric, human IgG1, Ckappa

Legend:
[1] = molecular target: T1, human LAMP1 at the cell surface (human, UniProt P11279 29-417); assay: flow cytometry, HCT116 huLAMP1 clone 8
T1 construct: native on tumour cells (PDX, Colo205, SW480, LS174T) or from the cloned CDS NM_005561.3 in HEK293 and HCT116; signal peptide 1-28 left out; also called huLAMP1; full length human LAMP1
T1 sequence: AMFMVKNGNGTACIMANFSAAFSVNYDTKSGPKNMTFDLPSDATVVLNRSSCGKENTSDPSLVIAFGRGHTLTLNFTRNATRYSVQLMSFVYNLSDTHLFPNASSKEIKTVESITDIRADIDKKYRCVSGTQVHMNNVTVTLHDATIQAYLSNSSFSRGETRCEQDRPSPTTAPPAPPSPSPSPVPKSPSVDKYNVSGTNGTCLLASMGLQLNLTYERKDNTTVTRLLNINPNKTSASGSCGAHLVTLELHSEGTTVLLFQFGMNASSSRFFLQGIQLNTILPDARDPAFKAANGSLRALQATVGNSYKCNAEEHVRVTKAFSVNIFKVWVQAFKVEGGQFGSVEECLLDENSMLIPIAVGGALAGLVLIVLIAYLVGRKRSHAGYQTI
Experimental: 100 μL/well of goat anti-human IgG conjugated with Alexa488 (Invitrogen; # A11013) was added for 1 h at 4° C. and washed two times with PBS 1% BSA. The antibody binding was evaluated after centrifugation and resuspension of cells in 100 ul fixing solution (paraformaldehyde at 4% in PBS). Samples were read using Galaxy® Flow Cytometry System (Partec).

mLAMP1::histag = molecular target: T2, mLAMP1::histag (mouse, UniProt P11438 25-369); assay: ELISA
T2 construct: also called mouse LAMP1 (25-369); Mouse LAMP1
T2 sequence: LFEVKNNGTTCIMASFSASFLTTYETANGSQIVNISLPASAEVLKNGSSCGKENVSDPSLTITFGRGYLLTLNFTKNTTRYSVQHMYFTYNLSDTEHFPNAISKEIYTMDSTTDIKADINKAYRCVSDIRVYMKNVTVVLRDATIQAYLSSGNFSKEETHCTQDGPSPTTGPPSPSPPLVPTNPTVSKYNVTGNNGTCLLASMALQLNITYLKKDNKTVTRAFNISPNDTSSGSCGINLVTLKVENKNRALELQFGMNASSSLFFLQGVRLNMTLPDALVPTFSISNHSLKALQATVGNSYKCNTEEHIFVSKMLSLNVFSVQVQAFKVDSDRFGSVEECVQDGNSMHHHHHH

[2] = molecular target: T3, mLAMP1_L12_LAMP1_L34::histag (mouse/human hybrid); assay: ELISA
T3 construct: mouse LAMP1 (25-189) and human LAMP1 (196-382), His tag; also called Loop1-2: mLAMP1 Loop3-4: hLAMP1
T3 chain: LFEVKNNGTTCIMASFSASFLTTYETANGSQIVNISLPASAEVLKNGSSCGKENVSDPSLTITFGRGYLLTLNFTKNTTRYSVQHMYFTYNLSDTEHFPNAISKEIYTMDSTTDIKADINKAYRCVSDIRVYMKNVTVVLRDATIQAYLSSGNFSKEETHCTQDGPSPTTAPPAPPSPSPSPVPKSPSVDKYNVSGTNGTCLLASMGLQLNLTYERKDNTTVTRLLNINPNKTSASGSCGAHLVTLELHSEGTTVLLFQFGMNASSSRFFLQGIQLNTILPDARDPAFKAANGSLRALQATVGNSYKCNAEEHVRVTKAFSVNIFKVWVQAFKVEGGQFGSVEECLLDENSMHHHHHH

[3] = molecular target: T1, human LAMP1 at the cell surface; assay: cell-based or functional assay
LAMP1::histag = molecular target: T4, LAMP1::histag (human, UniProt P11279 29-382); assay: ELISA on secreted human LAMP1
T4 construct: extracellular domain without signal peptide, C-terminal 6 His tag, made in HEK293 cells; also called recombinant human LAMP1; human LAMP1 (29-382)
T4 sequence: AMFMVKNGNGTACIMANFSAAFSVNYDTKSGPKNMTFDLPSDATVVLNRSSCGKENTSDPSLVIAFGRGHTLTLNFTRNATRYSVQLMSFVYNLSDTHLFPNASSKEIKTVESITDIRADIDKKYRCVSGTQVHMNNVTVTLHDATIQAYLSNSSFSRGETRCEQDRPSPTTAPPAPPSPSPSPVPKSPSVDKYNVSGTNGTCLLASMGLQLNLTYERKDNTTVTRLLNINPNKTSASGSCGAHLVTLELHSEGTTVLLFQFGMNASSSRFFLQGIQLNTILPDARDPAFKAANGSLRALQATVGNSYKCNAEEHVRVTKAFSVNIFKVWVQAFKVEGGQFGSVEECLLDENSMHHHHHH

[4] = molecular target: T5, cynomolgus monkey LAMP1 at the cell surface (cynomolgus monkey, UniProt P11279 29-417 (human entry)); assay: flow cytometry
T5 construct: also called cynoLAMP1; cynomolgus LAMP1
T5 chain: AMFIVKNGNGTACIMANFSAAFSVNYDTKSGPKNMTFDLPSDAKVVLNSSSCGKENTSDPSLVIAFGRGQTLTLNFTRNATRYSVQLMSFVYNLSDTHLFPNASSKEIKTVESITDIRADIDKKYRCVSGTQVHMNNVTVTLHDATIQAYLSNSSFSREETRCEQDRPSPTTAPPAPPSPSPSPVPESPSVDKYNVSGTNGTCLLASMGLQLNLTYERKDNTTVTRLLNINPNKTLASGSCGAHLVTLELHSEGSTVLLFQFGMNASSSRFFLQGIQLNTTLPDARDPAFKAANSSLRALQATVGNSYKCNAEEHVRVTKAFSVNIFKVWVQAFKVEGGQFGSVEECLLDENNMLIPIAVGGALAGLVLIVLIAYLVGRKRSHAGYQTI

[5] = molecular target: T1, human LAMP1 at the cell surface; assay: cell-based or functional assay; remark: listed apart in the source
[6] = molecular target: T1, human LAMP1 at the cell surface; assay: flow cytometry, HCT116 huLAMP1 clone 8; remark: listed apart in the source
Experimental: HCT116 cells were infected by a lentiviral vector allowing stable integration of the human or the cynomolgus LAMP1 CDS in genomic DNA of cells. Individual clones with different densities of human or cynomolgus LAMP1 cell surface localization were derived from a pool of HCT116 infected cells. […] 100 μL/well of goat anti-human IgG conjugated with Alexa488 (Invitrogen; # A11013) was added for 1 h at 4° C. and washed two times with PBS 1% BSA. The antibody binding was evaluated after centrifugation and resuspension of cells in 100 μl fixing solution (paraformaldehyde at 4% in PBS). Samples were read using Galaxy® Flow Cytometry System (Partec). EC50 values were estimated using BIOST@T-SPEED software.

[7] = molecular target: T5, cynomolgus monkey LAMP1 at the cell …; assay: flow cytometry, HEK293 cynoLAMP1 clone 44
[8] = molecular target: T6, mLAMP1_L1_LAMP1_L234::histag (mouse/human hybrid); assay: ELISA
T6 construct: also called Loop1: mLAMP1 Loop2-4: hLAMP1
T6 chain: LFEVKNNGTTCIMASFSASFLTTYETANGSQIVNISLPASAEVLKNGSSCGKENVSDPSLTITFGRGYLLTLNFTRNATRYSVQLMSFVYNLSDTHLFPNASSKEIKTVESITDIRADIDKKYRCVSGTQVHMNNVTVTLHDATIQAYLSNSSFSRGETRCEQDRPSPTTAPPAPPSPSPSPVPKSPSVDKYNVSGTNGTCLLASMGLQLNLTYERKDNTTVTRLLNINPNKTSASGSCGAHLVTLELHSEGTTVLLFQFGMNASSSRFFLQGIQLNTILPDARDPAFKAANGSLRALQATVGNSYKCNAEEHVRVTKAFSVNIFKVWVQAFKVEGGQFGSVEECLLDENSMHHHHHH

LAMP1_mL1_hL234_ΔGYQTI = molecular target: T7, LAMP1_mL1_hL234_ΔGYQTI (mouse; human); assay: flow cytometry, transfected 293-F cells
T7 construct: on cells; also called pXL5668
T7 chain: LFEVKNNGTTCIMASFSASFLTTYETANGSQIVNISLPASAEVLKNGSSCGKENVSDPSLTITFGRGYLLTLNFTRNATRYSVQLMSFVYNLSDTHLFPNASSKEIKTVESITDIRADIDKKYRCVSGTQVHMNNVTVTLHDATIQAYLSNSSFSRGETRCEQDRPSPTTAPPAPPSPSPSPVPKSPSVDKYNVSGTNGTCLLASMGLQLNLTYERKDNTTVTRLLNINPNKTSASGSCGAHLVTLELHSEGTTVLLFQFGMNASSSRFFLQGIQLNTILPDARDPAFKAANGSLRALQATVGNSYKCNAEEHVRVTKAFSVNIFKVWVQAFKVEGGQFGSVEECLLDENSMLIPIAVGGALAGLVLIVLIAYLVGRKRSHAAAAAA

hLAMP1_ΔGYQTI = molecular target: T8, hLAMP1_ΔGYQTI (human, UniProt P11279 29-412); assay: flow cytometry, transfected 293-F cells
T8 construct: also called pXL5626
T8 sequence: T1 sequence with G385A, Y386A, Q387A, T388A, I389A

Row | Binder | EC50 [1] [nM] | binding result (mLAMP1::histag) | binding result [2] | ADCC EC50, NK batch 67125626389 [3] [nM] | ADCC EC50, NK batch 67125903091 [3] [nM] | ADCC EC50, NK batch 67130127373 [3] [nM] | ADCC EC50, NK batch 67130494552 [3] [nM] | ADCC EC50, NK batch 67130496259 [3] [nM] | EC50 (LAMP1::histag) [nM] | Ratio of EC50s (cynoLAMP1 against huLAMP1) [4] | cytotoxicity IC50, HCT116 huLAMP1 clone 8 [5] [nM] | EC50 [6] [nM] | EC50 [7] [nM] | binding result [8] | binding result (LAMP1_mL1_hL234_ΔGYQTI) | mean fluorescence (hLAMP1_ΔGYQTI)
1 | B1 | 6 | no binding | no binding | 0.05 | 0.76 | 0.009 | 0.2 | 0.6 | 0.09 |  |  |  |  |  |  | 
2 | B2 |  |  |  |  |  |  |  |  |  | 2.65 | 0.1 | 12.7 | 33.5 |  |  | 
3 | B3 |  | no binding | no binding |  |  |  |  |  |  |  |  |  |  | no binding | no binding | 640
